From US20250084155A1 (University of Texas, published 2025)

Tests used:
[1] = biological target: T1, HSP70 (human HSP70; the antigen of the binning, humanization and variant binding assays) (human, UniProt P0DMV8 1-641, limits assumed); test: BLI, anti-human Fc capture, antigen 100 nM
T1 construct: also called hu HSP70
Procedure, shortened: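 Antibody variants captured on anti-human Fc biosensors at […]; antigen at 100 nM flowed over, 25° C. Captured antigen recorded at 610 s (start of dissociation) and 1495 s (end of dissociation), giving % dissociation.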

[2] = biological target: T1, HSP70 (human HSP70; the antigen of the …); test: BLI, anti-human Fc capture, antigen dilution series, 1:1 fit
Protocol: (§1) Further kinetics assays were conducted for select antibody variants. Assays were performed as follows. Antibody variants were immobilized using anti-human Fc onto the surface of a series of biosensors. Antigen was passed over the surface to generate a binding response. Binding data for the antibody: antigen interactions were collected at 25° C. on the biosensors. A dilution series of the antigen was used in the association step, in order to fit results globally and get the best values for ka, kd, and KD. The response data for the binding of antigen to the surface immobilized antibody were fitted to a 1:1 binding model.

[3] = biological target: T1, HSP70 (human HSP70; the antigen of the …); test: BLI, anti-human Fc capture, steady state
Protocol: as §1

T1 sequence (P0DMV8 whole entry, change not shown): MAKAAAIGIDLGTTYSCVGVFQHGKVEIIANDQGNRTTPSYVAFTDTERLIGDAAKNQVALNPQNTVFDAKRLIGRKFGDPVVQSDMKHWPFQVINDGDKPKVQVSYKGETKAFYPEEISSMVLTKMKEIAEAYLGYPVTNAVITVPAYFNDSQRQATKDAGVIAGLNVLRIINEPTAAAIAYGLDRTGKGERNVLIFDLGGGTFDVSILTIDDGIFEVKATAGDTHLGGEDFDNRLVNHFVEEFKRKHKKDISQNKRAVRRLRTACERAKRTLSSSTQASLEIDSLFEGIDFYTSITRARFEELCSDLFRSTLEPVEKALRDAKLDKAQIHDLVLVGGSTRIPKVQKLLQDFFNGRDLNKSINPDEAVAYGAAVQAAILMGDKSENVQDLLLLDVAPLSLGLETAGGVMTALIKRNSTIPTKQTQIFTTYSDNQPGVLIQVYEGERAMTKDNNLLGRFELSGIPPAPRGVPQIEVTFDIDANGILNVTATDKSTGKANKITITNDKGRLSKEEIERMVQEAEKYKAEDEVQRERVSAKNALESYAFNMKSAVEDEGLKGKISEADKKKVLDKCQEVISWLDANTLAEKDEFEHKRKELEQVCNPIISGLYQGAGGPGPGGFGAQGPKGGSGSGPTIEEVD

B1: h77A-1.46 (antibody, V domains shown)
VH: QIQLVQSGVEVKKPGASVKVSCKASGYTFTNYGMNWVRQAPGQGLEWMGWINTYTGEPTYADDFKGRFTFTTDTSTSTAYMELRSLRSDDTAVYFCARYDHAMDYWGQGTLVTVSS
VL: EIVLTQSPDSLAVSLGERATIKCKSSQSLLNSGTRKNYLAWYQKKAGQSPKLLIYWTSTRESGVPDRFSGSGSGTDFTLTIDSLQAEDVAVYYCKQSYTLYTFGGGTKVEIK
notes: captured by anti-human Fc
[1]
  % Diss: 6.22%
[2]
  Kd: 2.24 nM
  koff: 0.000123 s⁻¹
  kon: 54800 M⁻¹ s⁻¹
[3]
  KD Steady State: 1.2 nM

B2: h77A-1.59 (antibody, V domains shown)
VH: QIQLVQSGPEVKKPGASVKVSCKASGYTFTNYGMNWVRQAPGQGLEWMGWINTYTGEPTYGDDFKGRFTFTTDTSTSTAYMELRSLRSDDTAVYFCGRYDHAMDYWGQGTLVTVSS
VL: EIVLTQSPDSLAVSLGERATINCKSSQSLLNSGTRKNYLAWYQQKAGQSPKLLIYWTSTRESGVPDRFSGSGSGTDFTLTIDRLQAEDVAVYYCKQSYTLYTFGGGTKVEIK
notes: captured by anti-human Fc
[1]
  % Diss: 9.8%
[2]
  Kd: 2.93 nM
  koff: 0.00012 s⁻¹
  kon: 40800 M⁻¹ s⁻¹
[3]
  KD Steady State: 0.74 nM

B3: h77A-1.61 (antibody, V domains shown)
VH: QIQLVQSGAEVKKPGASVKVSCKASGYTFTNYGMNWVRQAPGQGLEWMGWINTYTGEPTYADDFKGRFTFTTDTSTSTAYMELRSLRSDDTAVYFCARYDHAMDYWGQGSLVTVSS
VL: EIVLTQSPDSLAVSLGERATINCKSSQSLLNSGTRKNYLAWYQKKSGQSPKLLIYWTSTRESGVPDRFSGSGSGTDFTLSIDSLQAEDVAVYYCKQSYTLYTFGGGTKVEIK
notes: captured by anti-human Fc
[1]
  % Diss: 6.66%
[2]
  Kd: 2.91 nM
  koff: 0.000123 s⁻¹
  kon: 42100 M⁻¹ s⁻¹
[3]
  KD Steady State: 2.1 nM

B4: h77A-1.71 (antibody, V domains shown)
VH: QIQLVQSGSEVKKPGASVKVSCKASGYTFTNYGMNWVRQAPGQGLEWMGWINTYTGEPTYADDFKGRFTFTTDTSTSTAYMDLRSLRSDDTAVYFCARYDHAMDYWGQGTLVTVSS
VL: EIVLTQSPDSLSVSLGERATIKCKSSQSLLNSGTRKNYLAWYQQKAGQSPKLLIYWTSTRESGVPDRFSGSGSGTDFTLTIDSLQTEDVAVYYCKQSYTLYTFGGGTKVEIK
notes: captured by anti-human Fc
[1]
  % Diss: 7.93%
[2]
  Kd: 2.51 nM
  koff: 0.000123 s⁻¹
  kon: 49000 M⁻¹ s⁻¹
[3]
  KD Steady State: 1.3 nM

B5: h77A-1.74 (antibody, V domains shown)
VH: QIQLVQSGPEVKKPGASVKVSCKASGYTFTNYGMNWVRQAPGQGLEWMGWINTYTGEPTYADDFKGRFTFTTDTSTTTGYMELRSLRSDDTAVYFCARYDHAMDYWGQGTLVTVSS
VL: EIVLTQSPDSLAVSLGERATIKCKSSQSLLNSGTRKNYLAWYQQKAGQSPKLLIYWTSTRESGVPDRFSGSGSGTDFTLTIDSLQAEDVAIYYCKQSYTLYTFGGGTKVEIK
notes: captured by anti-human Fc
[1]
  % Diss: 9.07%
[2]
  Kd: 1.61 nM
  koff: 0.000125 s⁻¹
  kon: 77800 M⁻¹ s⁻¹
[3]
  KD Steady State: 1.7 nM

B6: h77A-1.75 (antibody, V domains shown)
VH: QIQLVQSGVEVKKPGASVKVSCKASGYTFTNYGMNWVRQAPGQGLEWMGWINTYTGEPTYSDDFKGRFTFTTDTSTSTAYMEVRSLRSDDTAVYFCARYDHAMDYWGQGTLVTVSS
VL: EIVLTQSPDSLAVSLGERATINCKSSQSLFNSGTRKNYLAWYQQKAGQSPKLLIYWTSTRESGVPDRFSGSGSGTDFTLSIDSLQAEDVAVYYCKQSYTLYTFGGGTKVEIK
notes: captured by anti-human Fc
[1]
  % Diss: 5.34%
[2]
  Kd: 0.28 nM
  koff: 2.43e-05 s⁻¹
  kon: 88100 M⁻¹ s⁻¹
[3]
  KD Steady State: 0.023 nM

B7: h77A-1.94 (antibody, V domains shown)
VH: QIQLVQSGAEVKKPGASVKVSCKASGYTFTNYGMNWVRQAPGQGLEWMGWINTYTGEPTYTDDFKGRFTFTTDTSTSTAYMELRSLRSDDTAVYFCARYDHAMDYWGQGTLVTVSS
VL: EIVLTQSPDSLAVSLGERATINCKSSQSLFNSGTRKNYLAWYQQKAGQSPKLIIYWTSTRESGVPDRFSASGSGTDFTLSIDRLQAEDVAVYYCKQSYTLYTFGGGTKVEIK
notes: captured by anti-human Fc
[1]
  % Diss: 5.24%
[2]
  Kd: 1.85 nM
  koff: 0.000111 s⁻¹
  kon: 59900 M⁻¹ s⁻¹
[3]
  KD Steady State: 1.3 nM
